Columns and labels:
Assay in all cases: SPR
[1] = molecular target: human recombinant TLR4 protein (without MD2) (human, UniProt O00206 24-631)
integrin αvβ3 protein = molecular target: T1, integrin αvβ3 protein (UniProt P06756 31-1048; P05106 27-718)
T1 chain 1: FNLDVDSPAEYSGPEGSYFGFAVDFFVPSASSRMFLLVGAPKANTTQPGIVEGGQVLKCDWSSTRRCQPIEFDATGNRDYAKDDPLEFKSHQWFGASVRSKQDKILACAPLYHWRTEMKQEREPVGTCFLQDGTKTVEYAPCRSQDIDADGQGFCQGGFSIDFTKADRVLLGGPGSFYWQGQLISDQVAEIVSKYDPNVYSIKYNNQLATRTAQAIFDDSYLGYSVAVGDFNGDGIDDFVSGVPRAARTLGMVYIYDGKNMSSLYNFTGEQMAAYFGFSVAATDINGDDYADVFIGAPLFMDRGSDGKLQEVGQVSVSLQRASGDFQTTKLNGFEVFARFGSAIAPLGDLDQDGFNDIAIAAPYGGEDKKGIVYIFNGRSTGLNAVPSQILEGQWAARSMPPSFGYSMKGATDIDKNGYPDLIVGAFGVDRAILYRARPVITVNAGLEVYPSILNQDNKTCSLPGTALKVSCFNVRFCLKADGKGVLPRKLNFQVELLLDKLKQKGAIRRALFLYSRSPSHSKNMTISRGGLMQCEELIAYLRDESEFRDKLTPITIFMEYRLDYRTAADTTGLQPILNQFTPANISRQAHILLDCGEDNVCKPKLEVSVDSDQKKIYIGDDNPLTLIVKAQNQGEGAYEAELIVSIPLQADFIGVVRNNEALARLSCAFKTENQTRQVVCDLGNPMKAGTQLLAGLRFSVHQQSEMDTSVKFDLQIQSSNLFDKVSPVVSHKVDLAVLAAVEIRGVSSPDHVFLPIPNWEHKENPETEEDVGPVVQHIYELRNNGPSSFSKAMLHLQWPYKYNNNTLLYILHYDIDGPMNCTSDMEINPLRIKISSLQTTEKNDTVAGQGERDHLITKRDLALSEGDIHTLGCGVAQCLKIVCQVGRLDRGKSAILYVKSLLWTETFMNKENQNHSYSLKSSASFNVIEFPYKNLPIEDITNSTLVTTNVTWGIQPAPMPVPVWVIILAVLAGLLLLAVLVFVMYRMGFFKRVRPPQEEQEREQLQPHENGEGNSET
T1 chain 2: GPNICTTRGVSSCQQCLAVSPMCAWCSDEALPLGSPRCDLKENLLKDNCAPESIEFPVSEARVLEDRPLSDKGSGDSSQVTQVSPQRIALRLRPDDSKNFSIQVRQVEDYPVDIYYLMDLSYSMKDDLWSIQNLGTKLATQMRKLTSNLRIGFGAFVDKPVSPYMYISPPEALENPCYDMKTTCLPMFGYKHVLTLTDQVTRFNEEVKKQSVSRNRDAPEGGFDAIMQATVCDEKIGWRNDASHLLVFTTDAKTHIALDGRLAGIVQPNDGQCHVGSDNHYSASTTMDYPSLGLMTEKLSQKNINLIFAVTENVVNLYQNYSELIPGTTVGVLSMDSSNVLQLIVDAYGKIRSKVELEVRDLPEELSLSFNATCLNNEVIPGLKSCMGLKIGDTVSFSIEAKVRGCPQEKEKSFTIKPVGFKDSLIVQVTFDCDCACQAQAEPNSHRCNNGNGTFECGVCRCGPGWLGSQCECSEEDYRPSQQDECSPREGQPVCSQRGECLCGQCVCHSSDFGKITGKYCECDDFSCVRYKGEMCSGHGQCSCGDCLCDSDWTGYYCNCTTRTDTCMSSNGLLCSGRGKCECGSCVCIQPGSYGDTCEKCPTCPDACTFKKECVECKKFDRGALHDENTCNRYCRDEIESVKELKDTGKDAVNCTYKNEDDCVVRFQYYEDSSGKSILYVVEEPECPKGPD

[2] = molecular target: human recombinant TLR2 protein (human, UniProt O60603 21-588)
Sequence of human recombinant TLR2 protein (O60603 21-588): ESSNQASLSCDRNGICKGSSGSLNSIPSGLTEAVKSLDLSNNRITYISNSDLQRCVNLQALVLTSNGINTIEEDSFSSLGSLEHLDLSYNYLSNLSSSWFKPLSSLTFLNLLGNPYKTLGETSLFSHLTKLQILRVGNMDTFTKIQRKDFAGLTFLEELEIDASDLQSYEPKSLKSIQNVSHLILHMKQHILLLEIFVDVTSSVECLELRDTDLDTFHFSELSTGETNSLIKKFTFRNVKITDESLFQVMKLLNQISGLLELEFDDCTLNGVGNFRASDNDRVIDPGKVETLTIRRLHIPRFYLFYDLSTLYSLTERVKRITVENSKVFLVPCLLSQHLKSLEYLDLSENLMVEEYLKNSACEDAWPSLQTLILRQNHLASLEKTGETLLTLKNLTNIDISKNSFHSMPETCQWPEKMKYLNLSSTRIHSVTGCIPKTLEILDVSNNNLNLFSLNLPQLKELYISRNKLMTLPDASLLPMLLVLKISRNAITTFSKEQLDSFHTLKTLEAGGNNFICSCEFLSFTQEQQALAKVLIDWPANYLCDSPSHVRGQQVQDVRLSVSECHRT

Sequence of human recombinant TLR4 protein (without MD2) (O00206 24-631): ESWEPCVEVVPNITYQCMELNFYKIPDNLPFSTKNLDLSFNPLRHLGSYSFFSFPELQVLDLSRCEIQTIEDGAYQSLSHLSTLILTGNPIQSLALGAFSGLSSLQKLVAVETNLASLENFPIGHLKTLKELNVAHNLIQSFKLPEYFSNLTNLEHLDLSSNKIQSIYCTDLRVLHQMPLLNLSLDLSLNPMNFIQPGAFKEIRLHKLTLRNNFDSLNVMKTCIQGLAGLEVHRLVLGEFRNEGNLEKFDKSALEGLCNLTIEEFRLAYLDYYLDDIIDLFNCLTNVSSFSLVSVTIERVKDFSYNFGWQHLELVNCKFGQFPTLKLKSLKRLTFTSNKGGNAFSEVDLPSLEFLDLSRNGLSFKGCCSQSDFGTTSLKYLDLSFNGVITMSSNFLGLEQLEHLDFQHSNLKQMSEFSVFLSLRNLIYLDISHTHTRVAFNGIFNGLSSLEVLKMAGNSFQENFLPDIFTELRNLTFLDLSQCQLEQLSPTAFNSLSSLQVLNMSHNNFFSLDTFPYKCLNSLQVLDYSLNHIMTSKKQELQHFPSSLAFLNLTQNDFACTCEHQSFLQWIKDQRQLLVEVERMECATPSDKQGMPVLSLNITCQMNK

- koff [1]: 0.00288 s⁻¹
- koff (integrin αvβ3 protein): 0.0193 s⁻¹
- koff [2]: 0.0146 s⁻¹
B1: CCN1-WT (recombinant matricellular protein CCN1) (natural protein)
chain: TCPAACHCPLEAPKCAPGVGLVRDGCGCCKVCAKQLNEDCSKTQPCDHTKGLECNFGASSTALKGICRAQSEGRPCEYNSRIYQNGESFQPNCKHQCTCIDGAVGCIPLCPQELSLPNLGCPNPRLVKVSGQCCEEWVCDEDSIKDSLDDQDDLLGLDASEVELTRNNELIAIGKGSSLKRLPVFGTEPRVLFNPLHAHGQKCIVQTTSWSQCSKSCGTGISTRVTNDNPECRLVKETRICEVRPCGQPVYSSLKKGKKCSKTKKSPEPVRFTYAGCSSVKKYRPKYCGSCVDGRCCTPLQTRTVKMRFRCEDGEMFSKNVMMIQSCKCNYNCPHPNEASFRLYSLFNDIHKFRD
